Columns and labels:
[1] = molecular target: the molecule itself; assay: crystal structure; HiNagB crystals, P21, 12 monomers in the asymmetric unit, 3.0 Å; 2% Tacsimate pH 5.0, 0.1 M sodium citrate pH 5.6, 16% PEG 3350, 0.1 M strontium chloride, 18°C
[2] = molecular target: the molecule itself; assay: crystal structure; PmNagB crystals, P21, 4 monomers in the asymmetric unit, 2.3 Å; 100 mM sodium cacodylate/HCl pH 6.5, 200 mM MgCl2, 20% PEG 1000, 18°C; analysis of crystal packing

B1: Glucosamine-6-phosphate deaminase (NagB) from Haemophilus influenzae (enzyme)
chain: not shown
notes: Glucosamine-6-phosphate deaminase (NagB), Haemophilus influenzae; Made from a Gateway recombinant plasmid; also called HiNagB; Hi-NagB; source: E. coli BL21(DE3)*, purified (Ni-NTA, SEC)
stoichiometry N [1]: 6

B2: Glucosamine-6-phosphate deaminase (NagB) from Pasteurella multocida (enzyme)
chain: not shown
notes: Glucosamine-6-phosphate deaminase (NagB), Pasteurella multocida; Made from a Gateway recombinant plasmid; also called PmNagB; Pm-NagB; source: E. coli BL21(DE3)*, purified (Ni-NTA, SEC)
stoichiometry N [2]: 2

Source: article PMC9812318, “A dimer between monomers and hexamers—Oligomeric variations in glucosamine-6-phosphate deaminase family” (PLOS ONE, 2023)
